# From article PMC4256133 (Proteins, 2014)
# Biological target: the molecule itself
# Experiment: crystal structure
protein,measurement,value
"Octaprenyl pyrophosphate synthase from Escherichia coli (enzyme, E. coli) MNLEKINELTAQDMAGVNAAILEQLNSDVQLINQLGYYIVSGGGKRIRPMIAVLAARAVGYEGNAHVTIAALIEFIHTATLLHDDVVDESDMRRGKATANAAFGNAASVLVGDFIYTRAFQMMTSLGSLKVLEVMSEAVNVIAEGEVLQLMNVNDPDITEENYMRVIYSKTARLFEAAAQCSGILAGCTPEEEKGLQDYGRYLGTAFQLIDDLLDYNADGEQLGKNVGDDLNEGKPTLPLLHAMHHGTPEQAQMIRTAIEQGNGRHLLEPVLEAMNACGSLEWTRQRAEEEADKAIAALQVLPDTPWREALIGLAHIAVQRDR",stoichiometry N,2
